In the supplement of paper PMC10567573 one finds protein stability index data, which are given here for 72 sequences.

± gives the standard deviation.

The nature of this series: protein stability index of a GFP-peptide fusion (GPS, HEK-293T) (PSI 1-6); higher = more stable.
Setting [1] is: treatment: DMSO, c terminus: a fixed tail appended.
The mark [2] stands for this setting: treatment: MLN4924 1 uM, 8 h, c terminus: a fixed tail appended.
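Also: 24-mer peptide tiles fused after GFP, lentivirally expressed, FACS-sorted into six equal bins by GFP/DsRed ratio, decoded by Illumina sequencing, PSI is the read-weighted mean bin number.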

With EIAPQHRRGLLVSLNELMIVIGIL [SLC2A12], the protein stability index by setting is: under setting [1], 2.07 ± 0.11; under setting [2], 2.33 ± 0.16.
EIQVDSEEPVFEAVINWVKHAKKE [KLHL12] gave a protein stability index under setting [1] of 3.57 ± 0.4 and a protein stability index under setting [2] of 3.92 ± 0.95.
As to EISVDSLDFSKKILHTAWHPSENI [PPP2R2B], the protein stability index by setting is: under setting [1], 2.28 ± 0.26; under setting [2], 2.41 ± 0.21.
For the sequence EKEKHVNQLQTKVAVLEQEIKDKD [SASS6], the protein stability index is 5.38 ± 0.12 under setting [1] and 5.53 ± 0.14 under setting [2].
As to EKLKEKLKMKEREEAWVKIENLAK [PPP2R5C], the protein stability index by setting is: under setting [1], 2.54 ± 0.6; under setting [2], 2.48 ± 0.39.
The corresponding values for EKSQAYPRRRRPGCYAYRQNPEAI [MYORG] are 3.34 ± 0.27 and 3.32 ± 0.14.
Turning to ELDLRLRLAQPSSPEVLTPQLSPG [RTN2], the protein stability index reads like this: under setting [1], 4.23 ± 0.24; under setting [2], 4.22 ± 0.15.
Consider ELQGFWMDIGQPKDFLTGMCLFLQ [GMPPB], for which the protein stability index was determined as 2.19 ± 0.25 under setting [1] and 2.01 ± 0.35 under setting [2].
For ELQRQKEAEKLERQLALPATEQAA [NOP53], the protein stability index turned out to be 5.14 ± 0.34 under setting [1] and 5.42 ± 0.31 under setting [2].
As to ELVKSGVLGADGVCMTFMKQIAGG [INTS3], the protein stability index by setting is: under setting [1], 2.27 ± 0.52; under setting [2], 2.49 ± 0.068.
The sequence EMAATPAGFAQLTHLLMGLAGGKL [HDAC6] returned a protein stability index under setting [1] of 2.26 ± 0.39 and a protein stability index under setting [2] of 2.39 ± 0.22.
On to EMMSQALKATFSGFTKEQQRLGIP [ETS1], for which the protein stability index by setting is: under setting [1], 2.35 ± 0.28; under setting [2], 2.49 ± 0.2.
EMRQALQALLKENRLLQEENRTLQ [CBY2]: the protein stability index turned out to be 2.53 ± 0.45 under setting [1] and 2.65 ± 0.41 under setting [2].
Consider EMSRGEQDLIEDLKLARKAYHDPM [NET1], for which the protein stability index reads like this: under setting [1], 4.5 ± 0.27; under setting [2], 4.47 ± 0.33.
The corresponding values for ENCERREAFWAEWKDLTLSTRPEE [TCAP] are 4.53 ± 0.097 and 4.68 ± 0.2.
Sequence ENLLLASKLKGAAVKLADFGLAIE [CAMK2A] yielded a protein stability index under setting [1] of 2.35 ± 0.25 and a protein stability index under setting [2] of 2.7 ± 0.29.
Taken in the same sequence, the figures for EPTETLLSEKEINAREESLVEELS [BCL2L13] were 5.46 ± 0.12 and 5.55 ± 0.26.
As to EPVTLETPAFMFRLDASTSHQNLR [FSD1], the protein stability index by setting is: under setting [1], 3.6 ± 0.35; under setting [2], 3.83 ± 0.2.
Take EQNIIPSATNVTCYYQPAPYVSDG [TENT5C]: the protein stability index stood at 3.43 ± 0.4 under setting [1] and 3.63 ± 0.32 under setting [2].
For the sequence EQQNQEYKILLDVKTRLEQEIATY [KRT17], the protein stability index was determined as 3.44 ± 0.34 under setting [1] and 3.59 ± 0.56 under setting [2].
Sequence EQVFNAVMAWVKYSIQERRPQLPQ [KLHL20] had a protein stability index under setting [1] of 2.75 ± 0.67 and a protein stability index under setting [2] of 2.35 ± 0.68.
The corresponding values for ERDTLSIRESRLFGAVVRWAEAEC [BTBD1] are 3.13 ± 0.21 and 3.12 ± 0.34.
ERETEATRGRGGLLRDHIPRGKEE [MOG]: the protein stability index stood at 5.38 ± 0.38 under setting [1] and 5.18 ± 0.41 under setting [2].
For ERLLCPSLLAGTADGSLRMDDPKG [M1AP], the protein stability index under setting [1] is 4.74 ± 0.3 and the protein stability index under setting [2] was determined as 4.71 ± 0.3.
With ERRHREEKERRKKQQWEIMHKHNE [RSPH3], the protein stability index by setting is: under setting [1], 4.8 ± 0.23; under setting [2], 4.65 ± 0.28.
The corresponding values for ESQLDPSNCLGIRDFAETHNCVDL [KLHL12] are 3.9 ± 0.45 and 4.26 ± 0.49.
As to ESQSTSLRGSYNSLHDGSDGLDGI [LURAP1L], the protein stability index runs as follows: under setting [1], 4.91 ± 0.11; under setting [2], 4.68 ± 0.17.
Taken in the same sequence, the figures for ESSLGSESEEEEEFYDADEETQMI [SLC22A15] were 5.05 ± 0.24 and 4.88 ± 0.3.
Regarding ESTIVELGSIFQQLAHMVKEQEET [STX5], the protein stability index runs as follows: under setting [1], 2.4 ± 0.7; under setting [2], 3.25 ± 0.094.
The corresponding values for ESVVSSAVPAAATRTTSFKGTSPS [KCTD10] are 5.09 ± 0.056 and 5.25 ± 0.21.
Turning to ESYFTTRTYGEPESAGPSRAVRQS [EMD], the protein stability index under setting [1] was 4.62 ± 0.26 and the protein stability index under setting [2] amounted to 4.57 ± 0.18.
The corresponding values for ETAEEVSARIVQVVTAEAVAVLKG [MAP2] are 3.36 ± 0.27 and 3.45 ± 0.34.
Turning to ETILHFFVQILLALHHVHTHLILH [NEK8], the protein stability index is 3.19 ± 0.44 under setting [1] and 3.31 ± 0.29 under setting [2].
The corresponding values for ETVTVTVGPAEPTLVNFHLKRSIP [CPN1] are 3.02 ± 0.3 and 3.16 ± 0.2.
The corresponding values for EVGPQEINKEELEGNSMRCGRKLA [GMCL1] are 4.75 ± 0.48 and 4.76 ± 0.3.
Take EVSLDSLDLRVKGILSSQAEGLAN [EHMT1]: the protein stability index by setting is: under setting [1], 4.18 ± 0.19; under setting [2], 4.05 ± 0.42.
Sequence EVVPIHGRGNFPTLEITLKDIVQT [TENT5C] registered a protein stability index under setting [1] of 3.5 ± 0.31 and a protein stability index under setting [2] of 3.39 ± 0.27.
EWIKLDYHRRHNPKTNEDFEFLYN [IQUB]: the protein stability index under setting [1] came to 2.12 ± 0.19 and the protein stability index under setting [2] amounted to 2.24 ± 0.18.
On to EWLLDAPELPEGHLEDWLEKRAKR [ZMAT5], for which the protein stability index came to 4.95 ± 0.52 under setting [1] and 4.79 ± 0.15 under setting [2].
EWPEYFMAVAFLSAQRSKDPNSQV [DCTD]: the protein stability index reads like this: under setting [1], 2.35 ± 0.26; under setting [2], 2.06 ± 0.48.
Consider FARHIKKSEGQKIPKVELQISIYG [GULP1], for which the protein stability index turned out to be 2.06 ± 0.41 under setting [1] and 1.9 ± 0.26 under setting [2].
For FDETSSATTISTSEDGSYGTDVTR [KMT2E], the protein stability index reads like this: under setting [1], 5.34 ± 0.24; under setting [2], 5.49 ± 0.17.
The corresponding values for FDPLPPSDTIYSYVRPERLSPISH [TCF25] are 3.07 ± 0.17 and 3.14 ± 0.42.
As for FDVAFIGSIMTVWLSTAPTEPLTH [CARM1], the protein stability index came out at 3.24 ± 0.64 under setting [1] and 2.88 ± 0.53 under setting [2].
Regarding FELDLGKKVLNLLKGAFPARLKKV [PTPN9], the protein stability index reads like this: under setting [1], 2.84 ± 1.1; under setting [2], 2.34 ± 0.59.
As for FGGNPRFLSLHRAHLGEEAHKCLE [ZNF263], the protein stability index is, setting by setting: under setting [1], 2.47 ± 0.5; under setting [2], 3.14 ± 0.61.
Taken in the same sequence, the figures for FGQQDWKFLASHFPNRTDQQCQYR [MYBL2] were 2.62 ± 0.36 and 3.08 ± 0.27.
With FHALVREIRRKEKEAVLAMEKKSK [RIT1], the protein stability index was 2.52 ± 0.6 under setting [1] and 3.07 ± 0.57 under setting [2].
Take FHYIPGTDILDLENQRENLEQPFL [PLEKHN1]: the protein stability index reads like this: under setting [1], 2.92 ± 0.58; under setting [2], 3.09 ± 0.16.
For the sequence FIAVTSYQNHKITQLKIENNPFAK [TBX5], the protein stability index runs as follows: under setting [1], 2.12 ± 0.28; under setting [2], 2.27 ± 0.53.
Consider FKEVKEKFKGWVSYSTSEQAELSY [DLC1], for which the protein stability index reads like this: under setting [1], 3.13 ± 0.27; under setting [2], 2.87 ± 0.31.
Regarding FKKQIWLLFEYPESSSPARGIAIV [KCNA4], the protein stability index runs as follows: under setting [1], 2.74 ± 0.17; under setting [2], 2.42 ± 0.3.
Consider FLDWLRTNPDLIIVCAQSSQSLWN [SMG5], for which the protein stability index is 2.5 ± 0.41 under setting [1] and 2.36 ± 0.41 under setting [2].
Consider FLFQKPGDKYEHHSYMGMRGFCAF [POMT2], for which the protein stability index by setting is: under setting [1], 2.55 ± 0.75; under setting [2], 1.99 ± 0.22.
FLHSLVQFLFIYQLPFCGPNVIDN [OR4A15]: the protein stability index amounted to 2.89 ± 0.32 under setting [1] and 3.48 ± 0.26 under setting [2].
Taken in the same sequence, the figures for FLLDVIPVDGARYRWQGRRWEPSG [TBX6] were 1.81 ± 0.33 and 2.4 ± 0.3.
The corresponding values for FLTAPLLEFLLALYFLFADAMQLN [CMTM3] are 2.94 ± 0.29 and 3.17 ± 0.3.
In the case of FLTFDKQVLRFYAIWDDTDSMYGE [EFHC1], the protein stability index runs as follows: under setting [1], 2.49 ± 0.41; under setting [2], 2.46 ± 0.55.
Consider FLTSRTRALLRRFPRMLLVDRLPG [ZSWIM9], for which the protein stability index was determined as 2.57 ± 0.56 under setting [1] and 2.41 ± 0.39 under setting [2].
In the case of FMKYVDSNLCCFIPGKVIDEIYRV [FBXO28], the protein stability index reads like this: under setting [1], 2.99 ± 0.91; under setting [2], 2.65 ± 0.4.
Regarding FNYELVKSWLNGFRPKDQTSVGMS [SLC25A39], the protein stability index was 1.95 ± 0.32 under setting [1] and 1.97 ± 0.3 under setting [2].
Taken in the same sequence, the figures for FPRKSELTEHQRIHTGIKPHQCSE [ZNF649] were 3.92 ± 0.23 and 4.24 ± 0.18.
Consider FQARLSGNNLHNASIPEHLAYGSV [POMT2], for which the protein stability index under setting [1] was determined as 2.63 ± 0.21 and the protein stability index under setting [2] worked out at 2.95 ± 0.29.
The corresponding values for FQDAIFPDTQENRRMFSSLFQFSN [CCDC3] are 2.38 ± 0.43 and 2.58 ± 0.37.
Taken in the same sequence, the figures for FRENGRNCKRERDARVKRKLRGPE [TBX6] were 3.92 ± 0.3 and 4.05 ± 0.22.
Regarding FRIFIIWAISSWFRRGPAPQDQAG [CLPTM1], the protein stability index stood at 2.23 ± 0.2 under setting [1] and 1.87 ± 0.28 under setting [2].
For FRPGHLLANACLPVRTTNKISKQF [ZSWIM9], the protein stability index came out at 2.78 ± 0.12 under setting [1] and 2.8 ± 0.19 under setting [2].
Turning to FRQFGYQDSPGPREAVSQLRELCR [ZNF24], the protein stability index is, setting by setting: under setting [1], 3.37 ± 0.17; under setting [2], 3.38 ± 0.15.
For the sequence FRQYCGAACTCHVRNPLSACSIM [RNF208], the protein stability index amounted to 2.09 ± 0.19 (treatment: DMSO, c terminus: native) and 2.18 ± 0.2 (treatment: MLN4924 1 uM, 8 h, c terminus: native).
Regarding FRVVDCDQFTQVFLESQGIELNPP [EFHC1], the protein stability index under setting [1] amounted to 2.01 ± 0.14 and the protein stability index under setting [2] turned out to be 2.27 ± 0.17.
Consider FSDIPSPYLRGTIKMMQAVRQAFQ [GFOD1], for which the protein stability index was determined as 2.38 ± 0.2 under setting [1] and 2.17 ± 0.17 under setting [2].
On to FSPANPESSMEDCLAHLGEKVSQE [BCL2L13], for which the protein stability index by setting is: under setting [1], 5.2 ± 0.38; under setting [2], 5.39 ± 0.16.
